These results are taken from patent US20180230218A1.

The target of test [1] is human cMET (MET, c-Met, HGF receptor) on cells (human) (UniProt P08581). Briefly: cell-based or functional assay.
Test [2] has the same target. The experiment in a line: flow cytometry, inhibition of HGF (50 ng/mL) binding to MKN45 cells.
The target is the same in test [3]. Briefly: flow cytometry, inhibition of HGF (50 ng/mL) binding to BxPC3 cells.

human cMET (MET, c-Met, HGF receptor) on cells (human), sequence (P08581 25-1390): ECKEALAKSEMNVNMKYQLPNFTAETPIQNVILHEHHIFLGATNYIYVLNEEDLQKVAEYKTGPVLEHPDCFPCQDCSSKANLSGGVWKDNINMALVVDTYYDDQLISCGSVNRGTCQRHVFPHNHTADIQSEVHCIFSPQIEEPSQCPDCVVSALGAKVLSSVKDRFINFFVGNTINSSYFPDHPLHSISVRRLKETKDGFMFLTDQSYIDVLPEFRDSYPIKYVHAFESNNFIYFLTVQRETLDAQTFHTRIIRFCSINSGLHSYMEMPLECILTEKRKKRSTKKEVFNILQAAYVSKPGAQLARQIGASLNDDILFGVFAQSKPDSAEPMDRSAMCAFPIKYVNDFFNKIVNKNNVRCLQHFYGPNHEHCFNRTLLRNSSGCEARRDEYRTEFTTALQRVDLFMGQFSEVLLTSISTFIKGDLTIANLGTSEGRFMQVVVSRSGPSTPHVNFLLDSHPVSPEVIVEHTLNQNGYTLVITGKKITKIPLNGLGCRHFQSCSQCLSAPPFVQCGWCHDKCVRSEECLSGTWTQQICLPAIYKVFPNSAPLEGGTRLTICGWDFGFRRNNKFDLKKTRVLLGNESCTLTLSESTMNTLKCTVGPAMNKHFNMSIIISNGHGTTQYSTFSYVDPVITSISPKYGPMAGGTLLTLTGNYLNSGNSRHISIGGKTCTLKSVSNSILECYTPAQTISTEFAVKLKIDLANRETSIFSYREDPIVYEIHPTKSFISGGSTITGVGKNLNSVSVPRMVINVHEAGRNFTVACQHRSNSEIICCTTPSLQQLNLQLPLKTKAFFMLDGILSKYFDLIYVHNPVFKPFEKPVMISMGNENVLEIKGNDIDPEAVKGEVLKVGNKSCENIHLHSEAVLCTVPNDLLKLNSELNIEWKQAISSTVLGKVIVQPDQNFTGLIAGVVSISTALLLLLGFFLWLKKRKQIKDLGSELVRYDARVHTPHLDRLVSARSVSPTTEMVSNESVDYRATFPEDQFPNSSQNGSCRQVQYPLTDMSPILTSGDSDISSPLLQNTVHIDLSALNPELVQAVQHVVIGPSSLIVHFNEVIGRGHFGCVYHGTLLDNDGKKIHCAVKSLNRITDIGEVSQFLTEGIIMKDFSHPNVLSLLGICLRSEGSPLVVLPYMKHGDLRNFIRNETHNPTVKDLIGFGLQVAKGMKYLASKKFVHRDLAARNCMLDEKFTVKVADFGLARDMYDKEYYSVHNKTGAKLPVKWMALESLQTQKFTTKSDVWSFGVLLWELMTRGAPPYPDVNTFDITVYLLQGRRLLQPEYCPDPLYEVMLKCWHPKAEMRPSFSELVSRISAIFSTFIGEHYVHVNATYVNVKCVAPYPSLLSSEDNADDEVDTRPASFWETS

Turning to huIgG-SMCC-DM1 (antibody), in test [1], the in vitro cytotoxicity in MET-expressing MKN45 cells, EC50 was over 30 nM. On to 224G11 (antibody), for which the values for the % inhibition of HGF binding in test [2] and in test [3] were 67% and 50%, respectively.

For the substance 5D5 (antibody), in test [1], the percent induction of NCI-H441 cell growth (WST-8), normalised to 100 ng/mL HGF was 92%.
